From publication PMC6271572, “One-step affinity purification of fusion proteins with optimal monodispersity and biological activity: application to aggregation-prone HPV E6 proteins” (Microbial Cell Factories, 2018)
Where “and” joins values, the source holds several entries; their conditions need not be identical. Equal values may be shown once.

How the values were obtained:
[1] = biological target: E6AP LXXLL motif (Homo sapiens) (UniProt Q05086); assay: SPR; details: cited from earlier work
[2] = biological target: E6APwt, 16-mer LXXLL motif peptide of E6AP; assay: SPR; Biacore T200, 25 °C; biotinylated peptide reversibly captured on CAP chip (Biotin CAPture kit), MBP-E6 as analyte in two-fold dilutions from 10 µM; Tris 50 mM pH 8, NaCl 400 mM, DTT 2 mM, 0.005% polysorbate 20; steady-state analysis, 1:1 model; protein samples purified on resin N1 or N2
[3] = biological target: the molecule itself; assay: SEC; analytical SEC on Superdex 200 Increase 5/150 GL in Buffer A (Tris 50 mM pH 8, NaCl 400 mM, DTT 2 mM), A280; monomer and oligomer peaks assigned by column calibration; samples from different resins, elution methods and contact times

HPV16 E6 (from UniProt P03126)
Kd [1]: 4.15 µM

MBP-fused HPV16 E6 F47R 4C/4S (natural protein)
Kd [2]: 1.6 µM and 2 µM

B1: MBP-fused HPV8 E6 (natural protein)
chain: MDGQDKASNLDTNKDELPSTIKELAEALGIPLQDCLVPCNFCGNFLDFLELCEFDKKRLCLIWKNYVVTACCRCCCVATATFEFNEYYEQTVLGRDIELATGRSIFEIDVRCQNCLSFLDIIEKLDCCGRGRPFHKVRGGWKGVCRLCKHLYHDW
notes: Printed order of the fusion: MBP-6His-TEV site-E6 (vector pETM-41, NcoI/Acc65I sites); tags were not cleaved off; Expected MW 60.9 kDa; also called MBP-8E6; not shown: MBP, N-terminal, kept
binding result [3]: binds
